This test deals with Calmodulin (CaM), unmodified (UniProt P0DP23 1-149). Put plainly: fluorescence polarisation; synthetic FAM-labeled peptides of iPLA2β with CaM (Supplementary Figure 7h). The note with it: both partners purified.

No end group written: not given here.

With RKGQGNKVKK (also: FAM label (position not given here)) [Synthetic FAM-labeled peptide corresponding to the 1-9-14 motif of iPLA2β], binding was characterised by a dissociation constant (Kd) of 2.5 ± 0.4 µM. Take AWSEMVGIQYFR (also: FAM label (position not given here)) [Synthetic FAM-labeled peptide corresponding to the IQ motif of iPLA2β]: the affinity, expressed as Kd, was 5.9 ± 0.8 µM.

The values are drawn from article PMC5823874, “The structure of iPLA2β reveals dimeric active sites and suggests mechanisms of regulation and localization” (Nature Communications, 2018).
